Reference: patent US20050019801A1, “Stem cell-based methods for identifying and characterizing agents” (Curis, Inc., priority 2003, published 2005)
“Also recorded” adds a separate entry of the source.

How the values were obtained:
[1] = system: (HB9-GFP)-mouse embryonic stem cells; test: Motor neuron differentiation of (HB9-GFP)-mouse embryonic stem cell embryoid bodies, GFP by fluorescent or confocal microscopy; format: cell-based; settings: one day 100 nM RA and 50 ng/ml Sonic hedgehog protein, then three days with agent, fluorescent microscopy
Procedure: Briefly, mouse embryonic stem cells expressing GFP under the control of the HB9 promoter were cultured to confluence, trypsinized, and allowed to reaggregate to form embryoid bodies. The embryoid bodies were treated for one day with 100 nM RA and 50 ng/ml Sonic hedgehog protein. Subsequently, the embryoid bodies were cultured for three days with a previously identified hedgehog, small molecule agonist. Cultured embryoid bodies were analyzed by fluorescent and bright filed microscopy (FIG. 2).
As outlined above, the stem cell based methods of the invention can be used in many ways including, but not limited to, as a primary screen to identify agents that promote differentiation without regard to the mechanism of action; as a primary screen to identify agents that promote differentiation and that may act by agonizing or antagonizing a particular signaling pathway; or as a secondary screen to confirm that an agent that agonizes or antagonizes a particular signaling pathway also functions to promote differentiation along a particular lineage. […] Briefly, several small molecules were previously identified in a screen to identify agonists of the hedgehog signaling pathway. […] Mouse embryonic stem cells expressing GFP under the control of the HB9 promoter were cultured to confluence, trypsinized, and allowed to reaggregate to form embryoid bodies. The embryoid bodies were treated for one day with 100 nM RA and 50 ng/ml Sonic hedgehog protein. Subsequently, the embryoid bodies were cultured for three days with one of three previously identified hedgehog, small molecule agonists. Cultured embryoid bodies were analyzed by fluorescent microscopy for expression of GFP (FIG. 3).
Mouse embryonic stem cells were cultured and treated as described above. Following three days of culture in the presence of the hedgehog agonist, embryoid bodies were analyzed by confocal microscopy to allow analysis of sections throughout the embryoid body. Confocal images were compared to confocal images of embryoid bodies cultured in the absence of hedgehog agonist.
By way of example, known antagonists of BMP signaling include noggin, chordin, follistatin, cerberus, Dan, gremlin, ectodin, sclerostin, and ventroptin. Known antagonists of Wnt signaling include sFRP, WIF, dkk, and Cerberus. Briefly, mouse embryonic stem cells expressing GFP under the control of the HB9 promoter were cultured to confluence, trypsinized, and allowed to reaggregate to form embryoid bodies. The embryoid bodies were treated for one day with 100 nM RA and 50 ng/ml Sonic hedgehog protein. Subsequently, the embryoid bodies were cultured for three days with one of the following: 98 (a small molecule hedgehog agonist), chordin (a BMP antagonist), noggin (a BMP antagonist), gremlin (a BMP antagonist), Dan (a BMP antagonist), PTN (a neurotrophic factor), sFRP2 (a Wnt antagonist), dkk1 (a Wnt antagonist). Cultured embryoid bodies were analyzed by fluorescent microscopy for expression of GFP (FIG. 9).
Embryoid bodies were differentiated as described above for FIG. 9. […] Note, however, the morphological differences among cells types differentiated using each agent. Embryoid bodies treated with a Wnt antagonist were flatter than embryoid bodies treated with a BMP antagonist.

[2] = system: Mouse embryonic stem cells (embryoid bodies); test: Combinations of agents promoting motor neuron differentiation from embryoid bodies, HB9 expression; format: cell-based; settings: agent plus the same sub-threshold concentration of small molecule hedgehog agonist (Ag1.3)
Procedure: BMP antagonists and Wnt antagonists synergized with hedgehog agonists to promote motor neuron differentiation from embryoid bodies. Briefly, mouse embryonic stem cells were cultured, as described above.

B1: noggin: a BMP antagonist (protein, UniProt Q13253 28-232, looked up)
Noggin: QHYLHIRPAPSDNLPLVDLIEHPDPIFDPKEKDLNETLLRSLLGGHYDPGFMATSPPEDRPGGGGGAAGGAEDLAELDQLLRQRPSGAMPSEIKGLEFSEGLAQGKKQRLSKKLRRKLQMWLWSQTFCPVLYAWNDLGSRFWPRYVKVGSCFSKRSCSVPEGMVCKPSKSVHLTVLRWRCQRRGGQRCGWIPIQYPIISECKCSC
motor neuron differentiation, as measured by expression of the HB9 promoter-driven transgene (GFP) [1]: robustly promoted motor neuron differentiation; also recorded: differentiated along a motor neuron lineage
motor neuron differentiation, as measured by expression of HB9 [2]: promoted motor neuron differentiation

B2: dkk1: a Wnt antagonist (protein, UniProt O94907 32-266, looked up)
Dickkopf-related protein 1: TLNSVLNSNAIKNLPPPLGGAAGHPGSAVSAAPGILYPGGNKYQTIDNYQPYPCAEDEECGTDEYCASPTRGGDAGVQICLACRKRRKRCMRHAMCCPGNYCKNGICVSSDQNHFRGEIEETITESFGNDHSTLDGYSRRTTLSSKMYHTKGQEGSVCLRSSDCASGLCCARHFWSKICKPVLKEGQVCTKHRRKGSHGLEIFQRCYCGEGLSCRIQKDHHQASNSSRLHTCQRH
motor neuron differentiation, as measured by expression of the HB9 promoter-driven transgene (GFP) [1]: robustly promoted motor neuron differentiation; also recorded: differentiated along a motor neuron lineage

B3: PTN: a neurotrophic factor (protein, UniProt P21246 33-168, looked up)
Pleiotrophin: GKKEKPEKKVKKSDCGEWQWSVCVPTSGDCGLGTREGTRTGAECKQTMKTQRCKIPCNWKKQFGAECKYQFQAWGECDLNTALKTRTGSLKRALHNAECQKTVTISKPCGKLTKPKPQAESKKKKKEGKKQEKMLD
motor neuron differentiation, as measured by expression of the HB9 promoter-driven transgene (GFP) [1]: robustly promoted motor neuron differentiation

B4: sFRP2: a Wnt antagonist (protein, UniProt Q96HF1 25-295, looked up)
Secreted frizzled-related …: LFLFGQPDFSYKRSNCKPIPANLQLCHGIEYQNMRLPNLLGHETMKEVLEQAGAWIPLVMKQCHPDTKKFLCSLFAPVCLDDLDETIQPCHSLCVQVKDRCAPVMSAFGFPWPDMLECDRFPQDNDLCIPLASSDHLLPATEEAPKVCEACKNKNDDDNDIMETLCKNDFALKIKVKEITYINRDTKIILETKSKTIYKLNGVSERDLKKSVLWLKDSLQCTCEEMNDINAPYLVMGQKQGGELVITSVKRWQKGQREFKRISRSIRKLQC
motor neuron differentiation, as measured by expression of the HB9 promoter-driven transgene (GFP) [1]: differentiated along a motor neuron lineage
motor neuron differentiation, as measured by expression of the HB9 promoter-driven transgene (GFP) ([1]; listed as sFRP): robustly promoted motor neuron differentiation
motor neuron differentiation, as measured by expression of HB9 [2]: promoted motor neuron differentiation

B5: gremlin: a BMP antagonist (protein, UniProt O60565 25-184, looked up)
Gremlin-1: KKKGSQGAIPPPDKAQHNDSEQTQSPQQPGSRNRGRGQGRGTAMPGEEVLESSQEALHVTERKYLKRDWCKTQPLKQTIHEEGCNSRTIINRFCYGQCNSFYIPRHIRKEEGSFQSCSFCKPKKFTTMMVTLNCPELQPPTKKKRVTRVKQCRCISIDLD
motor neuron differentiation, as measured by expression of the HB9 promoter-driven transgene (GFP) [1]: robustly promoted motor neuron differentiation; also recorded: differentiated along a motor neuron lineage
motor neuron differentiation, as measured by expression of HB9 [2]: promoted motor neuron differentiation
